Test results from patent US20180298422A1.

Target: Taq DNA polymerase (Thermus aquaticus) (UniProt P19821)
Assay: cell-based or functional assay

UniProt P19821, sequence (P19821 whole entry): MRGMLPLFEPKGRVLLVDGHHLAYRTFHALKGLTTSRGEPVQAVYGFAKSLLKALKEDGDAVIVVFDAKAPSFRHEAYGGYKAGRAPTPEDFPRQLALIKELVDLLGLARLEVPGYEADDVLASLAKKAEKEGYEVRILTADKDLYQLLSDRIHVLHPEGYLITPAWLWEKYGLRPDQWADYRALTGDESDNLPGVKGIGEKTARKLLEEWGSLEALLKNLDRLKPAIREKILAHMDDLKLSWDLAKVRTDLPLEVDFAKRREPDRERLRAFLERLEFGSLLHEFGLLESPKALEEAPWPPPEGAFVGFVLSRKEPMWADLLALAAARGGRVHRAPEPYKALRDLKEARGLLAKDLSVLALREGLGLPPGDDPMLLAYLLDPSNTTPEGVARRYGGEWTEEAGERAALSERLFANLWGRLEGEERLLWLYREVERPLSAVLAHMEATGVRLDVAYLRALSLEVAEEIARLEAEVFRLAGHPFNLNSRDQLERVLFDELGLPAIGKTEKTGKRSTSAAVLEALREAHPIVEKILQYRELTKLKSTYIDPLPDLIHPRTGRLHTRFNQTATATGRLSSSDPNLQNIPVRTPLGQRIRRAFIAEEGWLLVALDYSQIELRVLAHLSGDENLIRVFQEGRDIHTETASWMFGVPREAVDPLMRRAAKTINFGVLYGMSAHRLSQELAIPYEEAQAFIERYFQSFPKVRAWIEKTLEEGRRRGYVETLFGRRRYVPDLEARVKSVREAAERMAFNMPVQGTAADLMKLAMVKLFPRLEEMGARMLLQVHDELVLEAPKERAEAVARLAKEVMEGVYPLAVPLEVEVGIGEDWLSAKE

reactivation time of Taq DNA polymerase at 95 C in real-time PCR: < 0.5 min
Substance: JumpStart Antibody (Sigma Aldrich)
